{
  "source": "paper PMC9141661",
  "key": {"[1]": {"target": "Angiotensin-converting enzyme 2 (ACE2) ectodomain, Fc-tagged (human) (UniProt Q9BYF1)", "sequence (Q9BYF1 18-740)": "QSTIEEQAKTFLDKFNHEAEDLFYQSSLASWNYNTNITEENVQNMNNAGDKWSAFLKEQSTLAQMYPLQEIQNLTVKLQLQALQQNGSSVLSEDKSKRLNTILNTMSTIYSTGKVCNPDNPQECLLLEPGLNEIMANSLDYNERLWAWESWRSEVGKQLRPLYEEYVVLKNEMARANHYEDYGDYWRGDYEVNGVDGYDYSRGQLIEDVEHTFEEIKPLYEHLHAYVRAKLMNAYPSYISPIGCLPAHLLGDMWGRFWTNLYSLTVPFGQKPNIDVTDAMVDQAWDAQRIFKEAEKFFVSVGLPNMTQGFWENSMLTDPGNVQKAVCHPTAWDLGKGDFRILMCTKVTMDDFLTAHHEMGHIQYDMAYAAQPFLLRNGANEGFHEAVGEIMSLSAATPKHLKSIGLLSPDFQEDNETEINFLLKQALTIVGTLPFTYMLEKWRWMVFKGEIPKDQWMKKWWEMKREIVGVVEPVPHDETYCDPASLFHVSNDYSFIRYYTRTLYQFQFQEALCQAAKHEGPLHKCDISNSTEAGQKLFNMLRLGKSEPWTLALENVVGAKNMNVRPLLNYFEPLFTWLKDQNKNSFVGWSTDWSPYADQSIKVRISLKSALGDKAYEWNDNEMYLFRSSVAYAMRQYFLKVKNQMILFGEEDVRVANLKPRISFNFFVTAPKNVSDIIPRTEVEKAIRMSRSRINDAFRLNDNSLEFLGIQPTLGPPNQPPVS", "assay": "BLI"}, "[2]": {"target": "Angiotensin-converting enzyme 2 (ACE2) ectodomain, Fc-tagged (human) (UniProt Q9BYF1)", "assay": "latex nanoparticle-enhanced turbidimetry"}},
  "data": [
    {"substance": "Human milk lactoferrin (natural protein)", "values": [
      {"measurement": "Kd", "setting": "[1]", "value": 27.6, "unit": "µM"},
      {"measurement": "koff", "setting": "[1]", "value": 0.461, "unit": "s⁻¹"},
      {"measurement": "kon", "setting": "[1]", "value": 16700, "unit": "M⁻¹ s⁻¹"},
      {"measurement": "apparent Kobs (inhibition of RBD-ACE2 complex formation, initial rates)", "setting": "[2]", "value": 6.3, "unit": "µM"}
    ]}
  ]
}
